Assay results: patent publication US20090253622A1, “USE OF TLR3 AGONISTS FOR THE TREATMENT OF NEURODEGENERATIVE DISORDERS” (Nederlandse Organisatie voor toegepast - …, priority 2006, published 2009)
“Also recorded” adds a separate entry of the source.

Columns and labels:
Format in all cases: cell-based
human adult astrocytes = test: cDNA array profiling of cytokine, chemokine and growth factor genes in human adult astrocytes
Protocol: Adult human astrocytes from post-mortem subcortical white matter samples were isolated and cultured as previously described (Bsibsi et al., J Neuropath Exp Neurol 61:1013-1021 [2002]). […] When indicated astrocytes were stimulated with 50 μg/mL poly I:C (Amersham Pharmacia Biotech, Piscataway, N.J.) or 200 ng/mL LPS (Sigma-Aldrich, Steinheim, Germany) to activate TLR3 and TLR4, respectively. […] It should be noted that contaminants in the commercial LPS preparation could possibly lead to some level of TLR2 activation in addition to TLR4 by the LPS preparation used but not of TLR3. When stimulated with cytokines, astrocytes were supplied with TNF-α, IFN-γ, IL-1β (each at 500 U/mL), IL-4 (at 250 U/mL), IL-6 (at 200 U/mL), IL-12 (at 50 ng/mL), IL-10 (at 20 ng/mL) and TGF-β (at 12.5 ng/mL) (PeproTech, Rocky Hill, N.Y.). […] Endothelial cells (UVEC) were isolated from umbillical cords and cultured on gelatin-coated dishes in M199 supplemented with 20 nM HEPES, 10% human serum, 10% heat-inactivated NBCS, 150 mg/mL ECGF, 5 U/mL heparin, 100 IU/mL penicillin and […] streptomycin.
Analysis of the mRNA profile of astrocytes was performed by hybrid selection of ^32P-labeled cDNA on Clontech human cytokine/chemokine Atlas® arrays as previous described (Meeuwsen et al., Glia 43:243-253 [2003]). Hybridization signals for each of the 268 cytokine, chemokine and growth factor (receptor) genes were calculated as the mean of duplicate measurements, corrected for background intensity and quantified using software provided by the manufacturer. Relative expression was calculated by dividing these hybridization signals by the mean signal for all nine housekeeping reference genes on the corresponding array.
Gene profiling was performed using astrocytes from four different control donors.
Astrocytes were isolated from post mortem human brain tissue samples and cultured under conditions as described elsewhere in this application. One part of the culture was stimulated with 50 μg/ml stathmin, the second with 50 μg/ml poly I:C and a third was left untreated to served as a reference control. Following another 48 h RNA was isolated from each culture and ^32P-labeled cDNA was prepared by reverse transcription. Subsequent hybrid selection of these ^32P-labeled cDNA samples was performed on Clontech Atlas® arrays containing selective probes for 268 cytokines, chemokines and growth factors, and various receptors for these mediators. All hybridization signals were calculated as the mean of duplicate measurements, corrected for background intensity and quantified using software provided by the manufacturer. Relative signal strength was next calculated by dividing these averaged hybridization signals by the mean signal for all nine housekeeping reference genes that were also present on each array as a reference.

[1] = tested on: astrocytes from TLR3-deficient mice; test: IL-6 release by astrocytes from TLR3-deficient mice (ELISA); details: TLR3-deficient mouse astrocytes, 48 h
Protocol: Astrocytes were cultured in poly L-lysine coated 96 well-flat-bottom plates at 1×10^4 cells per well in 100 l DMEM/HAM-F10 medium containing 10% FCS and antibiotic supplements for 24 h to obtain post-confluent cultures. Recombinant human stathmin was next added to astrocytes, and parallel control stimuli were performed with either poly I:C, an established TLR3 agonist, or ultrapure lipopolysaccharides, established TLR4 agonists. After addition of these stimuli astrocytes were incubated for another 48 h. Astrocyte culture supernatants were subsequently collected and using a commercial ELISA kit levels of IL-6 were determined, as a marker for TLR-mediated activation of murine astrocytes.

[2] = tested on: peripheral blood mononuclear cells (PBMC); test: CXCL8 accumulation in culture of human PBMC; details: 24 h, varying doses, two donors
From the text: Peripheral blood mononuclear cells (PBMC) were isolated from two healthy blood donors and from part of the cells, CD14^+ monocytes were isolated by positive selection using magnetic beads coated with an antibody against CD14. The purified CD14^+ monocytes were subsequently cultured for 5 days in the presence of IL-4 and granulocyte-macrophage colony stimulating factor (GM-CSF). These growth factors induce differentiation of monocytes into pre-dendritic cells (pre-DC) within this time frame. At this stage part of the pre-DC culture was stimulated with a mixture of IL-1β and TNF-α for another 2 days in culture, thus stimulating final maturation of the cells into plasmacytoid dendritic cells (DC).
Using this differentiation method, separate populations of PBMC, pre-DC and DC were generated and after washing of the cells to remove all previously used stimuli, cells were subsequently re-cultured in fresh medium and tested for their response to either poly I:C, stathmin or LPS. Accumulation of CXCL8 in the culture medium over a 24-h period was used as a measure for cellular activation.

[3] = tested on: immature human plasmacytoid dendritic cells (pre-DC); test: Antibody-array profiling of 40 cytokines and chemokines in human pre-DC supernatants; details: 50 μg/ml, 48 h
Protocol: To examine the effects of stathmin on the maturation and cytokine production of immature human plasmacytoid dendritic cells (pre-DC), such pre-DC were generated from samples of peripheral blood mononuclear cells by maturation of purified CD14^+ monocytes using GM-CSF and IL-4. The cells were subsequently exposed to 50 μg/ml stathmin and after 48 h, culture supernatants were collected and the accumulation of 40 different cytokines ands chemokines was evaluated by antibody-array profiling using a commercially available antibody array.

B1: stathmin: cytosolic phosphoprotein of 149 amino acids (SEQ ID NO: 1); purified recombinant human stathmin from a commercial source (protein)
chain: MASSDIQVKELEKRASGQAFELILSPRSKESVPEFPLSPPKKKDFSLEEIQKKLEAAEERRKSHEAEVLKQLAEKREHEKEVLQKAIEENNNFSKMAEEKITHKMEANKENREAQMAAKLERLREKDKHIEEVRKNKESKDPADETEAD
modifications: Human; (44)..(138) Stathmin-like alpha helix domain
notes: purified recombinant human stathmin from a commercial source
In the case of B1, the “change in expression of genes encoding immune mediators and growth factors” value (human adult astrocytes; 50 μg/ml, 48 h) is reported as “comprehensive and marked change in expression”, the stathmin-induced mediators (human adult astrocytes; astrocytes (TLR3 on the cell surface), qualitative summary) is reported as “CNTF, LIF; also recorded: TSG-6, IL-9, IL10, IL-11, IL-5; also recorded: VEGF, VEGF-C, CXCL8; also recorded: CCL2, CCL3, CXCL9” and the IL-6 release [1] is reported as “completely absent; also recorded: fully abrogated”. For the same molecule, the “CXCL8 accumulation in the culture medium” value [2] was “substantial increase in CXCL8 accumulation”, the “reduction of levels of the p70 subunit of IL-12” value [3] was “two-fold” and the CXCL8 induction ratio ([3]; vs untreated control) was over 1.5. For the same molecule, the IL-10 induction ratio ([3]; vs untreated control) was over 1.5, the MCP-1 induction ratio ([3]; vs untreated control) was over 1.5 and the “p40 subunit of IL-12 induction ratio” value ([3]; vs untreated control) was over 1.5.
